Data reported in article PMC4686657.

Target: GST-E2f1 (UniProt Q01094)
Experiment: EMSA
Conditions: increasing GST-E2f1, constant probe, EMSA: 20 mM HEPES, 10 mM KCl, 0.2 mM EDTA, 10% glycerol, 5 mM DTT (7 ul Binding Buffer D in 20 ul), 50 ng poly dI:dC, 0.15% NP-40, 1 ug BSA, 5 ug nuclear …

Sequence of UniProt Q01094 (Q01094 whole entry): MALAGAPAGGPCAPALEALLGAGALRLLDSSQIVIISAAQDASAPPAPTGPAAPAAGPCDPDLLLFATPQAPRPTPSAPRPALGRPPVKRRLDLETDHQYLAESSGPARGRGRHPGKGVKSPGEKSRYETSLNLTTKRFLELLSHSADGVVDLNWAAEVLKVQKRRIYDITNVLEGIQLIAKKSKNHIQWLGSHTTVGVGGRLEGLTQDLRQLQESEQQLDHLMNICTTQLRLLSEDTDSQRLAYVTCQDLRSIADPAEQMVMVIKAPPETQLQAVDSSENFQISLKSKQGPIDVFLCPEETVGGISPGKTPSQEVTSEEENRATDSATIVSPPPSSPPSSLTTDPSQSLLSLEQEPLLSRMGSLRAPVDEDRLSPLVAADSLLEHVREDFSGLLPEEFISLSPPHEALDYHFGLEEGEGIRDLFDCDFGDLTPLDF

Row | Sequence | binding signal (reference (Pfkl T-stretch is 1.88-fold)) | binding signal (scale: fold signal vs Pfkl probe)
1 | CAGGCGACAGCGGCGCGGAACGCAG (double strand) [Pfkl probe] | 1 | –
2 | CAGGCTTTTTCGGCGCGGAACGCAG (double strand) [Pfkl T-stretch probe] | – | 1.88
